± gives the standard deviation of the averaged measurements.
Test system: ATP
Test: switch fluorescence ratio, 500 uM ATP over buffer (Cy3 cluster intensity, sum of 5 cycles each) (fold (ratio)); higher = stronger signal-on switching upon ATP binding; sequences stand for … in TCGTCGGCAGCGTCAGATGTGTATAAGAGACAGTTTTTTTTTTTTTTTTTTTTTTTTT…TC
Conditions: aptamer strand: ATP DNA aptamer (quencher-CACCTGGGGGAGTATTGCGGAGGAAGG + anchor), 100 nM annealed; ATP concentration: 500 uM
Outline: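 Per cluster, summed Cy3 intensity from the target cycles was divided by that from the buffer cycles to give the fluorescence ratio, then averaged per switch-domain sequence. Clusters outside 100-1000 RFU were excluded. The Cy3-labelled switching-strand clusters, on a modified Illumina MiSeq flow-cell, were annealed to 100 nM quencher-labelled ATP aptamer and imaged in selection buffer, then after 15 min with 500 uM ATP at 22 °C, for five cycles with NaOH stripping and re-annealing between them.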
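Further: ATP exposure 15 min at 22 °C before imaging.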

Row | Sequence | switch fluorescence ratio
1 | GGGACAGCCT | 1.01 ± 0.017
2 | GGGACCGGCA | 1.01 ± 0.029
3 | GGGACCTTGT | 1.01 ± 0.064
4 | GGGACGATTT | 0.995 ± 0.017
5 | GGGACGGGGC | 1.06 ± 0.041
6 | GGGACGGTAG | 1.04 ± 0.034
7 | GGGACTCCAA | 1.24 ± 0.35
8 | GGGACTGGGA | 1 ± 0.031
9 | GGGACTTAGC | 1.02 ± 0.022
10 | GGGAGAACGG | 0.977 ± 0.046
11 | GGGAGAAGAG | 0.979 ± 0.036
12 | GGGAGAAGGG | 0.95 ± 0.023
13 | GGGAGAGAAT | 1.005 ± 0.0058
14 | GGGAGAGACT | 1.03 ± 0.014
15 | GGGAGAGGGC | 0.991 ± 0.013
16 | GGGAGATAGA | 0.982 ± 0.052
17 | GGGAGATGAC | 1.01 ± 0.022
18 | GGGAGGAGCA | 1.01 ± 0.073
19 | GGGAGGAGGT | 0.98 ± 0.024
20 | GGGAGGATTT | 0.987 ± 0.013
21 | GGGAGGCCGT | 1.04 ± 0.027
22 | GGGAGGCTCG | 1 ± 0.0082
23 | GGGAGGGGAG | 0.981 ± 0.019

Row | Sequence | switch fluorescence ratio
24 | GGGAGGGGTT | 1.01 ± 0.04
25 | GGGAGGGTTG | 0.981 ± 0.031
26 | GGGAGGTATT | 0.99676 ± 0.00098
27 | GGGAGTGAGA | 1.03 ± 0.035
28 | GGGAGTGAGG | 1.01 ± 0.011
29 | GGGATAAGAA | 0.992 ± 0.02
30 | GGGATAGGCT | 1.02 ± 0.021
31 | GGGATATAAT | 1.02 ± 0.022
32 | GGGATATGTT | 0.9921 ± 0.0071
33 | GGGATCATTA | 0.983 ± 0.02
34 | GGGATCCTCC | 1.027 ± 0.006
35 | GGGATCGGGA | 0.995 ± 0.013
36 | GGGATCGTAA | 0.987 ± 0.016
37 | GGGATCGTTG | 0.965 ± 0.017
38 | GGGATCTGAA | 0.969 ± 0.026
39 | GGGATCTTGA | 1.07 ± 0.051
40 | GGGATGAATA | 0.982 ± 0.042
41 | GGGATGACGG | 0.975 ± 0.036
42 | GGGATGAGAG | 1 ± 0.04
43 | GGGATGAGGA | 0.9848 ± 0.0044
44 | GGGATGCGG | 0.9609 ± 0.0064
45 | GGGATGGCAG | 0.9816 ± 0.0059
46 | GGGATGGCTG | 1.01 ± 0.055

Row | Sequence | switch fluorescence ratio
47 | GGGATGGGAT | 0.978 ± 0.037
48 | GGGATGGGGA | 1.02 ± 0.032
49 | GGGATGGGTT | 0.989 ± 0.025
50 | GGGATGGTTT | 0.988 ± 0.028
51 | GGGATTAGAT | 0.982 ± 0.013
52 | GGGATTATAT | 1.02 ± 0.032
53 | GGGATTATGT | 0.97 ± 0.015
54 | GGGATTCGCA | 0.99 ± 0.053
55 | GGGATTCGGG | 1.02 ± 0.022
56 | GGGATTGCTA | 1.03 ± 0.012
57 | GGGATTGGTG | 0.995 ± 0.026
58 | GGGATTTGTA | 1.02 ± 0.017
59 | GGGCAAAAAA | 1.03 ± 0.073
60 | GGGCAAACTT | 1.02 ± 0.018
61 | GGGCAAAGGG | 0.999 ± 0.041
62 | GGGCAACTGA | 1.01 ± 0.024
63 | GGGCAAGAGT | 1.03 ± 0.024
64 | GGGCAAGGAG | 1.01 ± 0.02
65 | GGGCAAGTCA | 1.02 ± 0.014
66 | GGGCAATGCT | 3.33 ± 3.1
67 | GGGCACAGAA | 0.9751 ± 0.0022
68 | GGGCACGTCG | 0.9888 ± 0.0094
69 | GGGCACTGGT | 1.04 ± 0.032

Row | Sequence | switch fluorescence ratio
70 | GGGCAGAAAT | 1.01 ± 0.048
71 | GGGCAGCGCA | 0.99057 ± 0.00048
72 | GGGCAGCTCT | 0.958 ± 0.016
73 | GGGCAGGCAC | 0.993 ± 0.018
74 | GGGCAGGGAG | 1 ± 0.017
75 | GGGCATATTC | 1.155 ± 0.0089
76 | GGGCATGCAT | 1.019 ± 0.0086
77 | GGGCATGGTG | 1.05 ± 0.025
78 | GGGCATGTAC | 1.57 ± 0.15
79 | GGGCATTTAG | 1.03 ± 0.092
80 | GGGCCAACGA | 1.042 ± 0.0014
81 | GGGCCAAGGA | 1.01 ± 0.02
82 | GGGCCCATA | 0.982 ± 0.028
83 | GGGCCCGCAA | 5.05 ± 0.21
84 | GGGCCCGGTT | 1.005 ± 0.0068
85 | GGGCCCTTAC | 1.11 ± 0.06
86 | GGGCCGCGCT | 0.942 ± 0.039
87 | GGGCCGGTTG | 0.995 ± 0.017
88 | GGGCCTGGAG | 1.012 ± 0.0086
89 | GGGCGAAATG | 1.32 ± 0.28
90 | GGGCGCAAGG | 1.02 ± 0.029
91 | GGGCGCCATC | 1.01 ± 0.016
92 | GGGCGCGGTG | 1.06 ± 0.081

Row | Sequence | switch fluorescence ratio
93 | GGGCGCTTCT | 0.9913 ± 0.0072
94 | GGGCGGATGG | 0.986 ± 0.018
95 | GGGCGGCGGC | 0.988 ± 0.0099
96 | GGGCGGCTGC | 0.955 ± 0.03
97 | GGGCGGCTGT | 1 ± 0.033
98 | GGGCGGGGGA | 1.06 ± 0.079
99 | GGGCGGTATA | 0.986 ± 0.025
100 | GGGCGGTCGG | 1 ± 0.03
101 | GGGCGTAAAA | 1.07 ± 0.023
102 | GGGCGTCGGT | 0.984 ± 0.015
103 | GGGCGTTTTT | 0.992 ± 0.017
104 | GGGCTAAAAC | 0.971 ± 0.035
105 | GGGCTATGTA | 0.993 ± 0.0095
106 | GGGCTGAGGG | 0.988 ± 0.029
107 | GGGCTGTTGC | 1.08 ± 0.13
108 | GGGCTTATGA | 1.018 ± 0.0044
109 | GGGCTTGAAG | 1.01 ± 0.017
110 | GGGCTTGTAT | 1.03 ± 0.014
111 | GGGCTTGTCC | 0.98 ± 0.043
112 | GGGCTTTACG | 1.01 ± 0.011
113 | GGGCTTTATG | 0.986 ± 0.023
114 | GGGCTTTTCG | 0.992 ± 0.024
115 | GGGGAAACGA | 0.9987 ± 0.0015

Row | Sequence | switch fluorescence ratio
116 | GGGGAAAGAG | 1 ± 0.017
117 | GGGGAAAGCG | 1 ± 0.026
118 | GGGGAAATTA | 1.02 ± 0.012
119 | GGGGAACGGT | 1.03 ± 0.012
120 | GGGGAAGAAG | 0.969 ± 0.02
121 | GGGGAAGCCT | 1.07 ± 0.03
122 | GGGGAAGCGG | 0.991 ± 0.056
123 | GGGGAAGGGG | 1.03 ± 0.058
124 | GGGGAAGTTT | 0.998 ± 0.027
125 | GGGGAATTTG | 1.01 ± 0.041
126 | GGGGACAATG | 1.02 ± 0.044
127 | GGGGACACGG | 1.03 ± 0.016
128 | GGGGACAGAT | 0.991 ± 0.017
129 | GGGGACGAGC | 0.999 ± 0.027
130 | GGGGACGATG | 0.996 ± 0.019
131 | GGGGACGTAC | 1.47 ± 0.22
132 | GGGGACGTAT | 1.01 ± 0.019
133 | GGGGACGTTT | 1.03 ± 0.043
134 | GGGGACTAGG | 0.982 ± 0.058
135 | GGGGACTAGT | 0.957 ± 0.043
136 | GGGGACTGCA | 1.03 ± 0.049
137 | GGGGAGAAAC | 1.08 ± 0.042
138 | GGGGAGAACT | 0.992 ± 0.016

Row | Sequence | switch fluorescence ratio
139 | GGGGAGAAGA | 0.9662 ± 0.005
140 | GGGGAGACGA | 1.04 ± 0.022
141 | GGGGAGAGAC | 1.04 ± 0.041
142 | GGGGAGCCGT | 1.03 ± 0.086
143 | GGGGAGGAAG | 0.997 ± 0.012
144 | GGGGAGGCCC | 0.998 ± 0.031
145 | GGGGAGGGAC | 1.02 ± 0.053
146 | GGGGAGGGCC | 1.01 ± 0.032
147 | GGGGAGGGCG | 0.967 ± 0.034
148 | GGGGAGGTAA | 0.973 ± 0.012
149 | GGGGAGTGAG | 0.986 ± 0.017
150 | GGGGAGTTAT | 1.01 ± 0.0024
151 | GGGGATAAAA | 1.01 ± 0.034
152 | GGGGATACGT | 1 ± 0.021
153 | GGGGATCCCC | 1.03 ± 0.019
154 | GGGGATGGCT | 0.992 ± 0.039
155 | GGGGATGGTG | 1 ± 0.035
156 | GGGGATGGTT | 0.974 ± 0.03
157 | GGGGATTAAG | 0.971 ± 0.033

Source: the supplement of paper PMC10126150
